Consider one protein from publication PMC4856591 (Structure (London, England : 1993), 2016).

The data set concerns the molecule itself. Put plainly: SAXS.

B1: Human PKG Iβ LZ:CNB-A/B (residues 1-369) (domain or fragment, UniProt Q13976-2 1-369, looked up)
chain: MGTLRDLQYALQEKIEELRQRDALIDELELELDQKDELIQKLQNELDKYRSVIRPATQQAQKQSASTLQGEPRTKRQAISAEPTAFDIQDLSHVTLPFYPKSPQSKDLIKEAILDNDFMKNLELSQIQEIVDCMYPVEYGKDSCIIKEGDVGSLVYVMEDGKVEVTKEGVKLCTMGPGKVFGELAILYNCTRTATVKTLVNVKLWAIDRQCFQTIMMRTGLIKHTEYMEFLKSVPTFQSLPEEILSKLADVLEETHYENGEYIIRQGARGDTFFIISKGTVNVTREDSPSEDPVFLRTLGKGDWFGEKALQGEDVRTANVIAAEAVTCLVIDRDSFKHLIGGLDDVSNKAYEDAEAKAKYEAEAAFFAN
As to B1, the binding result is “binds”.
